{"source": "paper PMC3792862", "about": "“Structure of UreG/UreF/UreH Complex Reveals How Urease Accessory Proteins Facilitate Maturation of Helicobacter pylori Urease” (PLoS Biology, 2013)", "binders": {"B1": {"name": "UreG (natural protein)", "chain": "MVKIGVCGPVGSGKTALIEALTRHMSKDYDMAVITNDIYTKEDAEFMCKNSVMPRERIIGVETGGCPHTAIREDASMNLEAVEEMHGRFPNLELLLIESGGDNLSATFNPELADFTIFVIDVAEGDKIPRKGGPGITRSDLLVINKIDLAPYVGADLKVMERDSKKMRGEKPFIFTNIRAKEGLDDVIAWIKRNALLED", "notes": "UreG, urease accessory protein (SIMIBI class GTPase) of Helicobacter pylori; Monomer in solution unless nickel and GTP (or free zinc) are present; two copies in the crystal of the UreG/UreF/UreH complex; also called apo-UreG; wild-type UreG; source: E. coli, purified (HisTrap, tag cleaved with SENP1C, second HisTrap, Superdex 75; dialysed with 5 mM EDTA)"}, "B2": {"name": "UreF/UreH complex (complex)", "chain 1": "MDKGKSVKSTEKSVGMPPKTPKTDNNAHVDNEFLILQVNDAVFPIGSYTHSFGLETYIQQKKVTNKESALEYLKANLSSQFLYTEMLSLKLTYESALQQDLKKILGVEEVIMLSTSPMELRLANQKLGNRFIKTLQAMNELDMGEFFNAYAQKTKDPTHATSYGVFAASLGIELKKALRHYLYAQTSNMVINCVKSVPLSQNDGQKILLSLQSPFNQLIEKTLELDESHLCTASVQNDIKAMQHESLYSRLYMS", "chain 2": "MNTYAQESKLRLKTKIGADGRCVIEDNFFTPPFKLMAPFYPKDDLAEIMLLAVSPGMMRGDAQDVQLNIGPNCKLRITSQSFEKIHNTEDGFASRDMHIVVGENAFLDFAPFPLIPFENAHFKGNTTISLRSSSQLLYSEIIVAGRVARNELFKFNRLHTKISILQDEKPIYYDNTILDPKTTDLNNMCMFDGYTHYLNLVLVNCPIELSGVRECIEESEGVDGAVSETASSHLCVKALAKGSEPLLHLREKIARLVTQTTTQKV", "notes": "UreF, urease accessory protein of Helicobacter pylori; UreH, urease accessory protein of Helicobacter pylori (ortholog of UreD); also called (UreF/UreH)2; wild-type UreF/UreH complex; copies: 2 + 2"}, "B3": {"name": "UreF (natural protein)", "chain": "B2 chain 1", "notes": "UreF, urease accessory protein of Helicobacter pylori; The UreF chain of m6, for the rows of two chains that touch; also called UreF protomer; UreF chain A"}}, "key": {"[1]": {"molecular_target": "the molecule itself", "experiment": "SEC-MALS; SEC/SLS; 40 µM UreG/UreF/UreH complex pre-incubated with 0.5 mM nickel and 1 mM GTP (2 mM magnesium sulfate); Superdex 200, phosphate-buffered saline; peaks analysed by SDS-PAGE"}, "[2]": {"molecular_target": "B3", "experiment": "crystal structure; UreG/UreF/UreH complex with 5 mM GDP, 10 mM magnesium sulfate, 5 mM aluminum fluoride; 1.5 M ammonium sulfate, 100 mM sodium acetate pH 5.0, 16°C; GDP-bound state, 2.35 Å", "conditions": "both partners purified"}, "[3]": {"molecular_target": "B2", "experiment": "crystal structure; UreG/UreF/UreH complex with 5 mM GDP, 10 mM magnesium sulfate, 5 mM aluminum fluoride; 1.5 M ammonium sulfate, 100 mM sodium acetate pH 5.0, 16°C; GDP-bound state, 2.35 Å", "conditions": "both partners purified"}, "[4]": {"molecular_target": "T1, HisGST-UreF/UreH complex (Helicobacter pylori, UniProt Q09065 1-254; Q09067 1-265)", "T1 construct": "UreF, urease accessory protein of Helicobacter pylori; UreH, urease accessory protein of Helicobacter pylori; also called wild-type HisGST-UreF (with UreH)", "T1 sequence 1": "B2 chain 1", "T1 sequence 2": "B2 chain 2", "experiment": "pull-down; purified GST-UreF/UreH and excess UreG on GST SpinTrap, 30 min at 4°C; immobilised complex incubated with 1 mM GTP and 2 mM magnesium sulfate, washed with buffer C, eluted with glutathione; SDS-PAGE of wash and eluate", "conditions": "both partners purified"}, "[5]": {"molecular_target": "T2, UreH (Helicobacter pylori, UniProt Q09067 1-265)", "T2 construct": "UreH, urease accessory protein of Helicobacter pylori; The UreH chain of m6 to m9; also called UreH (ortholog of UreD)", "T2 sequence": "B2 chain 2", "experiment": "crystal structure; UreG/UreF/UreH complex with 5 mM GDP, 10 mM magnesium sulfate, 5 mM aluminum fluoride; 1.5 M ammonium sulfate, 100 mM sodium acetate pH 5.0, 16°C; GDP-bound state, 2.35 Å", "conditions": "both partners purified"}, "[6]": {"molecular_target": "the molecule itself", "experiment": "crystal structure; UreG/UreF/UreH complex with 5 mM GDP, 10 mM magnesium sulfate, 5 mM aluminum fluoride; 1.5 M ammonium sulfate, 100 mM sodium acetate pH 5.0, 16°C; GDP-bound state, 2.35 Å"}}, "data": [{"binder": "B1", "values": [{"measurement": "stoichiometry N", "setting": "[1]", "value": 2}, {"measurement": "binding result", "setting": "[2]", "value": "binds"}, {"measurement": "binding result", "setting": "[3]", "value": "binds"}, {"measurement": "binding result", "setting": "[4]", "value": "binds"}]}, {"binder": "B2", "values": [{"measurement": "stoichiometry N", "setting": "[1]", "value": 2}]}, {"binder": "B3", "values": [{"measurement": "binding result", "setting": "[5]", "value": "binds"}, {"measurement": "binding result", "setting": "[6]", "value": "binds"}]}]}
